A protein production outcome set (Wang et al. 2014)

Test: label from the status in PepcDB records

## MQDNNGPCRNFYQLVFEEGKFMPRAFLSHSSADKKSYVEMVAKKLGYNTCVYDEFSFEEGMKSAEEIMKGLSRSDLFVLFLSDSALESNWVKNELNTAQELLNTGDMKRILPIIIDKNITYKDNRIPQWLRDEYNLKYVSRPTVAARRITQKLREISWEQHPRLKEKDQIFVGRNNLTKTFEERIDAFDLQTPTCIFASGIRKIGRRTLLKNCLTKSNVVDDSYQPPIITLNSHEGLEDFIIRIYDLGFSGEFNLSDFMTTEIDHKIGIATELIRDIQVAKEILFILDNGCIITPDREINQWFLQILSHLPNQDRVTFGIASSFRLDKKYIRTRNNIFYIEVPELDKVEREGLLKRYSKFEKLELQPDELKFFGDLLNGYPEQVYYAVDLIKDLGIFQAKKDSYLIQEFNTERVNILMNKYDNNQKSKDFLYFLSEFEFVDYDFIFEIVGDEEFYINLLNELLASAICEHLGANKEYIRINDIIRDFVKRNNLSLPKEYKDKLEDHLNNFLSNYQKEEKSAADLLYSMKEALIQGKSIDEKYLIPSQFLKTMTELYDRHKRYGEIVKLADRVLQNEEYMDHRITEEIRYYLCLALARQKDSRFLQEVQKIDGANHDFLFGFFFRITGNYRKAIERLETAIEKRPHFSFAERELVNVYLLIEDFERALTLAKQNYERDKNNPYHIQAYFRCLIAEDKINGNEEKMEELLDNLNKLKTEKAKQMYMRAKAQYLAFHKDDEIGALELADLATKTYSHDIYCWFTKFDICEKYDKIDEMGNILKVLDKMIDKNSSFYSILINLKALYLAKSDQKPEALKLVFSLNNYPENALDKIIKRIESTKIPRMNKRSIKI
  protein production: failed

## MHCVFLEFNMSVFKKIYFALSAFIVAPHIFLLMSSRHDNPIFRDIEVWSEKLLGKKISGRSGLVASVVELLSLAPEFRNLFYYRVPRARFFKFLSRPENTLHIHTRTIGPGFFIQHGFATIISAESIGADCWINQQVTIGYVDSTGAPKIGDNVTINAGAKVLGNIVIGDNAKVGANAVVVKNIPADCVVVGVPARIIRRAGARVDEAL
  protein production: failed

## MTKNPRTLYEKIWDAHIVERREDGSALIYIDRHLVHEVTSPQAFEALRQAGRPLRRPDRTLAVPDHNVPTTARVDSEGHLLPIADPQSAKQLAALAKNAPEFGVRYISATDPEQGIVHVVGPEQGFTLPGTTLVCGDSHTAAHGALGALAFGIGTSEVEHVMATQTLILTPAKTMEVRVEGKLSPDVSAKDLILHIIHSLGTAGGTGYAIEYTGEAIRNLSIEERLTVSNMSIEAGARTGLIAADEKTFAYLFGRPMAPKGADWEKAVQWWKSLATDKGAVYDKTVIIKAEDVQPSVTWGTSPEDVVPITGVVPDPASFADPAKQAAARRSLEYMGLEPGQKMEGLAVENVFIGSCTNSRIEDLRAAASVVWGRHVADNVKQALVVPGSGLVKRQAEAEGLDEVFKAAGFEWREPGCSMCLAMNPDKVPAGERCASTSNRNFVGRQGPGARTHLVSPAMAAAAAVTGHLTDLRHLEPVKMGEKA
  protein production: failed

## MVFLKRFRAYGFKSYADEITINFTHSMTGIVGPNGSGKSNVVDALKWVLGERSMKHLRSKSGDDMIFFGSKDKPASKLAEVELTFDNSQKLLHDPRPEISVMRRIYRGSGQSEYYINGELVTLKEISGIFADIGLEKGSLGIISQGSVSFVEAKPEERRKIFEDASGIGRYTKRKEEVTNQLARTVQNLKQVSIVLNELKKDLKKLTIQADKAQRFVKLKEELKELELSVLVADYLKSQGELDRFNHQIGYIEQDFKLHEPQLQLLEDQLNIFNQRFRDADEQSIKLQQELQAVYQTINELEQRKAVIDVQLKNELSKKDEKHKIQALKKLIRVDQAQLESLQAQVLKTTSEITLLTNELSTVQTELDTTKLNLNQNSAALVYQQAQQEFLKAQNEEWVKTNPAHVLVKNVKALTGLLNTLNTFLKFEKQYEKALLKALGKSIGYLVVNNNLAALKAIDFLLTNQIGQVTFLPIDDIAFDTKIAPEHMEILQQLDGFLGVGSDHVSCDESLQPIVNALLGQVIIASDLQAALKLSSYTYKLYRVVTLNGETVYAGGIIQGGYVKDNLSLYNLQEKLASSEANITQLEHNEKQLRTNLTSLETKLNELNKKLKYEEILLEKFNERVNHTNKAILSYKIEYEQLTNESFDGTPHSFDETRLVESLNRAWAERDELNSQLKLNQELKETLAKSIKLAEAKTADLRALLDEQRSQLVLAREGKIRFENTIHNITDKINGGYKLTMEFAIANYNKPIKLSTMQAQNKIARMQSQLDEMGPINLESIAEIADKQKRFDDINGEYESLQTAIKDLQTAIGEIDELACKEFDELIQKVNAELPKTFNYLFGGGSCQIRYTDTDNVLLSGIEVFANPPGKNVANLMLLSGGEKTLVALSVLFSILRVSAFPLVILDEAESALDPANVERFANIIGNSSNNTQFLIITHRQGTMMKCDMLLGAAMQTKGVTKTFAVSLEKAEQYISKDKQN
  protein production: failed

## MLSRIDLYIKHRDIFLKHLELLHKLIEKVEDSSLNESELLNARLVDDMFPFNVQAKIATNFALRACCPLSGKEYKELEGDIDSFCGLKTYVVTAIDYINKLSEPTLEQLNLNVQDTAGFKEISMPASEYMSSFVLPNFFFHISMVYAIAKNNGVSVTKGDFDGIHQYPKGFSWEA
  protein production: not failed

## TIFKDIYQLWFTQYKQTVKESTWVTTQRLFRLHILPIFSDYRIAKISIKDCQKAINQWFNAGLAKYHTLMNYVAKVLDYAINIDLISENPAKRVIVPVNKNDRS
  protein production: failed

## MRVAIAGAGAVGRSIAGELLENGHEVLLIDKAPTAISVERVPMAEWLLADACEITSLDEAALQRCNVVIAATGDDKVNLVVSLLAKTEYGVPRVVARVNNPKNEWLFNESWGVDVAVSTPRLMSALVEEAVSVGDLVRLLRFSHGDANLVELTLPEESALAGTQVGDVQWPEDTSLVTIIRGTRVLTPSREDSLEAGDELLFVAAQAREEQLEDLLSARRQPDGTL
  protein production: failed

## ALVNIVVTNRCDLSCFYCFFYAERAGYIYEPSIEQIKFMVRQVARQRQGSDVHVNIQITGGEPTVREDLVDVVKAIREAGAHYIQLNTNGINVARRYLDNPPGAIDYVRSLREAGVSVVYMSFDGVTPKVNWKNHYEAPFALKAFQEGGLDNVVLVPTVIRTINDHEVGDIIRFAGKHIDVVRGVNFQPVSLTGM
  protein production: failed

## MFKKKGCFMNQLEQKLEQDFGIVFSQKDLLETAFTHTSYANEHRLLNISHNERLEFLGDAALQLVISVYLYNRYPNKPEGEMSKMRSTIVREESLAGFTKACGFEQYIRLGKGEEKSGGRERATILGDLWEAFLGALYLDQGLPAVEKFLNQVMIPQVEKGNFDRVIDYKTALQERLQVNGKVDITYTVIDESGPAHAKEFTMQVAVDGKELSTGLGKSKKLAEQAAAKSALEQLGN
  protein production: failed

## MIAAPTQLAIMPFPNIDPIALSIGPLAIHWYGIAYVAGIMLGWFYARRLARTDRLWPNDTSPISAQHLDDFILWAAGGIVLGGRIGYILFYDMAAVAANPIRAIEIWNGGMSFHGGLIGTTIAMILFARRNGIPVWSMFDIIAAVAPIGLLFGRIANFINGELWGRIADVPWAVVFPTGGPFARHPSQLYEAGLEGLVLVVLLAIAIYVFKALKTPGTVTGIFVCGYALSRIFVEFFREPDAQIGYLAGNWLTMGMVLSTPMFLLGLWAVLRARSATKSA
  protein production: not failed

## MPPNTSFRLAALAVTVSGLLFSSSTLMAAETAETADLVLRNGNIYTVNQGQPWAEAVAVRDGRYVFIGSNAQAAEFIGPKTQVVDLNGSMAMPGINDVHAHPLDGGYEDIYSCNFSQKSSLDDILSQVSECAQKAGPGEWVIGSAWGSPRMAELSTTEALAKLDKVSNGRPVILRDDSYHNRWINSEAMRLAAITAQSVSPAGGVIVKDAKTGEPTGLLQEFPAFQHVQSLVPVRTEEQRLTSGRGATKTMVSLGITGVQEAVSSEVNLRIWSKIDRAEGLPLRIIGSIVSTPLLDEGAAGLELVARRDVYRTTNFFPDRFKFVLDGVPPAHTAKLIEPYLPTQAHGDHYHGDTHYTTEQVVEILSKLDKQGISTKLHAAGDGSLRLALDAVEQVRKINGPNGPMHQIAHTHLISPQDMPRFAQLRVAADLSPMLWFPSDMTNASVVTIGEERMKDFVPTVKLLRSGAVVAGGSDWPAGGPTPSPWIGIEGLVTRQNPLGDAPGTLAPEEAVDLPEAIRIYTINSAKAMGIEKETGSVELGKSADLIVLDRHLFNVPIKQVHRANVVKTYFKGQLVHSAPEKS
  protein production: failed

## YYNPVRYPERTKERRDLVLRLLMQQNMLTSQQYEQAVSRPLDTQSKPRIASRQPAYFQQLNIELKEKVGDRFKAETGL
  protein production: failed

## MADSESKIYHERQRLQFCLLHCLNNLFQDKDAFTKESLNSIAEKLETNDPNKETWTPLSFVLKPHHNTITGNYDVNVMITALEGKGKSVVWHDKRIGASSIDLDDADTLMGIVLNVPVKRYGGLWRSRHWVVVRKINGVWYNLDSDLVVPQLFRDDDEVRGFLDQNLSLDVIGLIWNLPYNANQLPLASNYRVVITHWSDLNGMFSHVTNYPLDFDVYPQVSSKVSAIYKATGTKRFNANTRPVTPGKQSSVKGPYYKNPGCTTSCGLRLPRKTECTAARLIKDLSCKFVMGLRLVVMRKKKKKRSPPLKKASSSGISQPSVISVVNDNNHRSAAIEDCIQFINSSSSFTRSNSTCGSKS
  protein production: failed

## MTEAIVASVATEPSLRPLAVLLVPLVTVGLIFLSKNRPNIREAWSILAAVTMFGIVASMVPDVLNGRVHETDLGFFVEGIELVLRADGLGMLFALVASGLYVVTAIYSIGYMRGHHEPFQTRFFAMLCASVGAALGVAFASNLFMLLVFYEVLTLATYPLVAHDESEKARVSGYKYLAYALSGGLAVFGGMLAVYWLTDPSTITFTRGGIEGLATVAAADPWAARGAFALLAGGFAVKAAVMPLHSWLPSAMVAPTPVSGLLHAVAVVKAGAFGVARTIIDVFGPETVRQIGMGLPLTIAAGATILIASLFALRQDNLKARLAYSTIAQLSYIVLGLSLLSGMGLMGGLLHIPAHAFSKLTLFLCAGALYVELDVKYISEMAGVGKRMPVTMGAFGLASFSMAGIPLMAGFVSKWHLIWGGAEAGYLLVAPLLVLSGVLNVAYFWPIIYTAFFESEDDADQKPVLDNPFGGVFDDDAYLTDGGVSSDDQHEDDSHDDHHDDGHHARPELPPAGGWDRSNWYGGETTLLLVAPLVTTATLMFIFGVAPDYIVFFDLIEGIVDGALEVDN
  protein production: failed

## MSDIHKKIKKKQFAPLYLLYGTEAFFINETIKLITTEALEEEDREFNVVTYDLEEAYLEDVVEDARTLPFFGERKVLLIKSPLFLTSQKEKLEQNIKILEEYIGEPSPFSILVFVAPYEKLDERKKITKLLKKTADIVEANAMQVQDVQKWIVARAEEGHVHIDNAAVSLLLELVGSNVTMLAKEMDKLTLYVGMGGEITPKLVAELVPKSVEQNVFALTEKVVKKDIAGAMQILDGLFTQQEEPIKLLALLVSQFRLLHQVKELQQRGYGQNQIASHIGVHPYRVKLAMNQTKFFSFEELKKVIIELAEADYSMKTGKMDKKLVLEFFLMRLNHM
  protein production: failed

## MFSIQQPLLVFSDLDGTLLDSHSYDWQPAAPWLTRLREANVPVILCSSKTSAEMLYLQKTLGLQGLPLIAENGAVIQLAEQWQEIDGFPRIISGISHGEISLVLNTLREKEHFKFTTFDDVDDATIAEWTGLSRSQAALTQLHEASVTLIWRDSDERMAQFTARLNELGLQFMQGARFWHVLDASAGKDQAANWIIATYQQLSGKRPTTLGLGDGPNDAPLLEVMDYAVIVKGLNREGVHLHDEDPARVWRTQREGPEGWREGLDHFFSAR
  protein production: not failed

## MSDDEIGDGARAFNQLIQALSLSIETETAVRTFTEMLVSELDVHQLTEQALALLLQHTGADGGAILIEVDGEIRVAASQGIGSAHTLANNDRVRSALRTERRHRVQLPEDLVVDGMLAQFRPKEVIIDPVRHKEVVLGAVVLASGQGFSAEDRNRLDVFERGLALALHNALLYDRLQTLAALDPLEHHHHHH
  protein production: failed

## MLPAYIRIHDQIKKEIDEGLWKIGDRLPSERDLAERFEVSRMTLRQAITLLVEEGILERRVGSGTYIASSRVQEKMRGTTSFTEIVKSQGKTPSTKLISYRRVHPSEQEIKFLDIKPKSYIIRMERVRYADDIPVVFEVTAIPEKIIKSFKKEAITKHFFKTLTDHGFVIGKSQQTISASNANEMTADYLAISRGHAVLTLAQVSYFENGMPFEYVRSQYVGERFEFYLENK
  protein production: not failed
